Experimental data reported in patent US20090093061A1.

Columns and labels:
Assay in all cases: GroEL-490 bead column capture of denatured serum, ATP elution, LC-MS-MS
[1] = target: ATPase, H+ transporting, lysosomal V0 subunit a isoform 2 (Homo sapiens) (UniProt Q9Y487)
[2] = target: DNA polymerase theta isoform 1 (Homo sapiens) (UniProt O75417)
[3] = target: E74-like factor 4 (ets domain transcription factor) (Homo sapiens) (UniProt Q99607)
[4] = target: Hpall tiny fragments locus 9C isoform2 (Homo sapiens) (UniProt Q8IZ69)
[5] = target: LUC7-liKe 2 (Homo sapiens) (UniProt Q9Y383)
[6] = target: SMC5 protein (Homo sapiens) (UniProt Q8IY18)
[7] = target: UDP glycosyltransferase 2 family, polypeptide B7 (Homo sapiens) (UniProt P16662)
Chain of UDP glycosyltransferase 2 family, polypeptide B7 (Homo sapiens) (P16662 24-529): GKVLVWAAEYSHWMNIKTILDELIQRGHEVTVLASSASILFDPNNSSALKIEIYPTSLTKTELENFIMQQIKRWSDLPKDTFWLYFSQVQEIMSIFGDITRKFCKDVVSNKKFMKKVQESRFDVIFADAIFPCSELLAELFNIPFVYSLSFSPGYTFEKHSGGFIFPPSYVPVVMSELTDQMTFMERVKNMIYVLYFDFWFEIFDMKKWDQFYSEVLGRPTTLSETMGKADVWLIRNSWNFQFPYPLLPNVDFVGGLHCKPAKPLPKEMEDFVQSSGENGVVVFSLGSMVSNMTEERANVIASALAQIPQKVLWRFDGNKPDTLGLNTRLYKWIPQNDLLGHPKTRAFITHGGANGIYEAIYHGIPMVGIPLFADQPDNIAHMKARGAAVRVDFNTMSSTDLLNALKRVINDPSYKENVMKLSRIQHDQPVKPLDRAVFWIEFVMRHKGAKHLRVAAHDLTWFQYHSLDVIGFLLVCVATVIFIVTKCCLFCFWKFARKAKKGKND

[8] = target: WD repeat membrane protein PWDMP (Homo sapiens) (UniProt Q8NEZ3)
[9] = target: alpha 1 type IX collagen isoform 1 precursor (Homo sapiens) (UniProt P20849)
[10] = target: alpha 2 macroglobulin precursor (Homo sapiens) (UniProt P01023)
[11] = target: alpha 2 type XI collagen isoform 3 preproprotein (Homo sapiens) (UniProt P13942)
Chain of alpha 2 type XI collagen isoform 3 preproprotein (Homo sapiens) (P13942 other isoform, or with tags, fused parts or gaps limits assumed): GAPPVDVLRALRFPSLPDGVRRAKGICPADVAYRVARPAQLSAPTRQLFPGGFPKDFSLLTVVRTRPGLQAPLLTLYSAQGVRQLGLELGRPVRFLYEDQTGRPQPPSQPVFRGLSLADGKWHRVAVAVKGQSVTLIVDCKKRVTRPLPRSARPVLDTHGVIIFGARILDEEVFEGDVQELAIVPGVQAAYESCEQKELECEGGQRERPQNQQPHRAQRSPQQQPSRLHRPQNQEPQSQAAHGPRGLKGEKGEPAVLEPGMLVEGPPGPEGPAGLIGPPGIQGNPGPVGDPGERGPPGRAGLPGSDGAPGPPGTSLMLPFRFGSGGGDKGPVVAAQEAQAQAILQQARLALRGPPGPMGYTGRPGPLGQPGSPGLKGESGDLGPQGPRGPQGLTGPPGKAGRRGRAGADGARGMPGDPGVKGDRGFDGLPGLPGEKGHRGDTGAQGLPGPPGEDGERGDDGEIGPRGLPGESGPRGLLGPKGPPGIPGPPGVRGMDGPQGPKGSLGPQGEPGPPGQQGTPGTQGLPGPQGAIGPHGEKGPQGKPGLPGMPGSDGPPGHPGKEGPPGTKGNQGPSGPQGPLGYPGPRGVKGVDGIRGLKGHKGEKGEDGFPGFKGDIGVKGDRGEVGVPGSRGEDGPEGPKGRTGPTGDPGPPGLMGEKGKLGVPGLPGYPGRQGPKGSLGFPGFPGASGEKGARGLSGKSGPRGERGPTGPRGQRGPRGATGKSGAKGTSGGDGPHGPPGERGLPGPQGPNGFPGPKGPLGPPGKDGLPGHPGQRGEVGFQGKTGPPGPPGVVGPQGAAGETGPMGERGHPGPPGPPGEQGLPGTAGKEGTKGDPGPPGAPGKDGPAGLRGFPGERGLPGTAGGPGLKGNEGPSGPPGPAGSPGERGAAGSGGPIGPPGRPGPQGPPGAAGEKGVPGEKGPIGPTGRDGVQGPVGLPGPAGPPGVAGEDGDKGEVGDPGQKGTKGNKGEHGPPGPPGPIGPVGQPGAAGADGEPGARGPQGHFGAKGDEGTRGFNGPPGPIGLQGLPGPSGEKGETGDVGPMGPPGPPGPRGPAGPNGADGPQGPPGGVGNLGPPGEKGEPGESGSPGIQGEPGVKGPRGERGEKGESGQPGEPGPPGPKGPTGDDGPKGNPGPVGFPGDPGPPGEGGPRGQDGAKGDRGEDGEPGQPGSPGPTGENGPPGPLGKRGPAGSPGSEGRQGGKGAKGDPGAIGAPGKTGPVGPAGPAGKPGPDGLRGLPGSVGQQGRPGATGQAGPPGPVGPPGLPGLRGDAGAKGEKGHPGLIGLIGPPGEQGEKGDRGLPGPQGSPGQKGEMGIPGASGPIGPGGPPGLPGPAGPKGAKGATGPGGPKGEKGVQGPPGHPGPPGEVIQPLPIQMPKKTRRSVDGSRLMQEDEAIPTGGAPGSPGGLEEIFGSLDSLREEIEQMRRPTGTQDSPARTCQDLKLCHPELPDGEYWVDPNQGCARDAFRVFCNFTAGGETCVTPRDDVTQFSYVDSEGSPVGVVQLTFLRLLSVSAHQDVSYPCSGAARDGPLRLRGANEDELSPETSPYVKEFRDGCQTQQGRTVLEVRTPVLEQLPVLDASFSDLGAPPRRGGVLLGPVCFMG

[12] = target: baculoviral IAP repeat-containing 6 (Homo sapiens) (UniProt Q9NR09)
bassoon (Homo sapiens) = bassoon (Homo sapiens) (UniProt Q9UPA5)
[13] = target: ceruloplasmin (ferroxidase) (Homo sapiens) (UniProt P00450)
[14] = target: ectonucleoside triphosphate diphosphohydrolase 7 (Homo sapiens) (UniProt Q9NQZ7)
[15] = target: hypothetical protein FLJ21439 (Homo sapiens)
Chain of hypothetical protein FLJ21439 (Homo sapiens) (Q96JI7 whole entry): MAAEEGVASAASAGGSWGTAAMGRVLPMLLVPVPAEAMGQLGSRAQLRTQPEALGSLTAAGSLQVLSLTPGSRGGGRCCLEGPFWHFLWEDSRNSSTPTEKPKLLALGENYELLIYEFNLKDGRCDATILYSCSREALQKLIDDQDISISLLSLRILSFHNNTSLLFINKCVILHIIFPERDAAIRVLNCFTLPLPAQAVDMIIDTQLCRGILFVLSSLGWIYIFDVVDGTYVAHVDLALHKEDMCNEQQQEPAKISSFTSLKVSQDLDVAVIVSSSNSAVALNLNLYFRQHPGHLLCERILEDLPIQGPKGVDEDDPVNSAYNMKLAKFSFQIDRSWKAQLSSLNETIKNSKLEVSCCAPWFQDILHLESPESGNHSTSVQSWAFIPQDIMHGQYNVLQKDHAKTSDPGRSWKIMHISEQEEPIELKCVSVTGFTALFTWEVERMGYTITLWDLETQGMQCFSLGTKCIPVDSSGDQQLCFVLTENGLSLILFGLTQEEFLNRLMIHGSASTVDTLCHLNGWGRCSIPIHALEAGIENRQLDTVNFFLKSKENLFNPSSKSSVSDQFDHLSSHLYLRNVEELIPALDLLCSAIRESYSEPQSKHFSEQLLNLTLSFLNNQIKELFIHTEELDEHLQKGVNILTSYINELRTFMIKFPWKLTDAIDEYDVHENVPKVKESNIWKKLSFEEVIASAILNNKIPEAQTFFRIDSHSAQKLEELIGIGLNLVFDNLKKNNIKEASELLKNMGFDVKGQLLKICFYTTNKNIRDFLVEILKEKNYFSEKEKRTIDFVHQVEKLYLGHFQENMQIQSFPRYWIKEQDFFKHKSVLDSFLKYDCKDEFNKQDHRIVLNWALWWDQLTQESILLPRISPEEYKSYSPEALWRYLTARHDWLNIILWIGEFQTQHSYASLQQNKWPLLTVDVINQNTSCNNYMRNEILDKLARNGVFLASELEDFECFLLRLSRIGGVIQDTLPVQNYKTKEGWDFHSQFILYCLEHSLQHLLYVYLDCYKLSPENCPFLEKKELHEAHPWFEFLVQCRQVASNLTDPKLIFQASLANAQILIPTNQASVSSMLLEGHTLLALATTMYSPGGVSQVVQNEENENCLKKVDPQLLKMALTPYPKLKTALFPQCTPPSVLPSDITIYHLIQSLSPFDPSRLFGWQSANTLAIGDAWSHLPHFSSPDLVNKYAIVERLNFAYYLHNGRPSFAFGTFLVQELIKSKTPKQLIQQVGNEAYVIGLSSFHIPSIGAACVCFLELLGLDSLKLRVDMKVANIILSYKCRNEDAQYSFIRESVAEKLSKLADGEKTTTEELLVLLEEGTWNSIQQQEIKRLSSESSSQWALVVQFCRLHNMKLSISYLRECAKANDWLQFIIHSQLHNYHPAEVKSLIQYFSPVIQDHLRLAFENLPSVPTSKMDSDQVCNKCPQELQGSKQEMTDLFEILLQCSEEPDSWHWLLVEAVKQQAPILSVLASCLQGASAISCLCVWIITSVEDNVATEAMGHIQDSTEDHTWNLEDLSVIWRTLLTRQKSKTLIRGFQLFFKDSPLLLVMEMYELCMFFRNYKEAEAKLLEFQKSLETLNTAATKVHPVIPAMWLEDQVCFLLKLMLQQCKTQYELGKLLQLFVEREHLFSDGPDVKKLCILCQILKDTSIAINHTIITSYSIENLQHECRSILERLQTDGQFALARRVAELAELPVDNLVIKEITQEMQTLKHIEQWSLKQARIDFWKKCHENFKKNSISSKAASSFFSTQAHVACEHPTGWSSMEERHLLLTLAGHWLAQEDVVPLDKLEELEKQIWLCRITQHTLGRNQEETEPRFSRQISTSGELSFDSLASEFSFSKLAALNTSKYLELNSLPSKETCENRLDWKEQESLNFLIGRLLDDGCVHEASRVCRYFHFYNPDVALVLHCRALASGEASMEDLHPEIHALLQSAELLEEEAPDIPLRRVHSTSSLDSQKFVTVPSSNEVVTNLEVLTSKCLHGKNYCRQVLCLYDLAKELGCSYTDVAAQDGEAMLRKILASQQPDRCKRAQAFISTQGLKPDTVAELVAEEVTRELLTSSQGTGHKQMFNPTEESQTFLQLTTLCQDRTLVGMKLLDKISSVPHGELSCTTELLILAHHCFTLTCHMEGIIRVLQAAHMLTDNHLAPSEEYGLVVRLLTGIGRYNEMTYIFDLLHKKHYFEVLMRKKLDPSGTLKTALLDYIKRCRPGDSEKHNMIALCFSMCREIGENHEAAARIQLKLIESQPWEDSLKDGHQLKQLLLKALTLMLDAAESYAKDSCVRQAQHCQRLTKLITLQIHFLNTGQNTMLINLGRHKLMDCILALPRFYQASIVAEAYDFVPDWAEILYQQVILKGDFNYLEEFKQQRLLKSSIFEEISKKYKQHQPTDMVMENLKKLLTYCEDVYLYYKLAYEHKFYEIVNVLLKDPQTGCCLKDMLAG

[16] = target: insulin-like 6 precursor (Homo sapiens) (UniProt Q9Y581)
[17] = target: microfilament and actin filament cross-linker protein isoform a (UniProt Q9UPN3)
[18] = target: odd Oz/Ten-m homolog 3 (Homo sapiens) (UniProt Q9P273)
[19] = target: p47 protein isoform a (Homo sapiens) (UniProt Q9UNZ2)
[20] = target: phosphoinositide-specific phospholipase C beta 1 isoform a (UniProt Q9NQ66)
[21] = target: phosphoinositol 3-phosphate-binding protein-2 (Homo sapiens) (UniProt Q9HAU0)
[22] = target: serine (or cysteine) proteinase inhibitor, clade A (alpha-1 antiproteinase, antitrypsin), member 1 (UniProt P01009)
[23] = target: similar to CXYorf1-related protein (Homo sapiens)
[24] = target: similar to Ig alpha-2 chain C region (Homo sapiens) (UniProt P25787)
[25] = target: similar to KIAA2018 protein (Homo sapiens) (UniProt Q68DE3)
[26] = target: similar to hypothetical protein (Homo sapiens)
[27] = target: solute carrier family 4, anion exchanger, member 2 (erythrocyte membrane protein band 3-liKe 1) (Homo sapiens) (UniProt P04920)
[28] = target: target of myb1 (Homo sapiens) (UniProt O60784)
[29] = target: titin isoform N2-A (Homo sapiens) (UniProt Q8WZ42)
[30] = target: titin isoform novex-2 (Homo sapiens) (UniProt Q8WZ42)
[31] = target: transferrin (Homo sapiens) (UniProt P02787)
[32] = target: v-raf murine sarcoma 3611 viral oncogene homolog 1 (Homo sapiens) (UniProt P10398)
[33] = target: very large G-protein coupled receptor 1 (Homo sapiens) (UniProt Q8WXG9)

Chain of GroEL having Aspartate 490 substituted with Cysteine, biotinylated and conjugated onto NeutrAvidin beads (A1AJ51 whole entry D490C): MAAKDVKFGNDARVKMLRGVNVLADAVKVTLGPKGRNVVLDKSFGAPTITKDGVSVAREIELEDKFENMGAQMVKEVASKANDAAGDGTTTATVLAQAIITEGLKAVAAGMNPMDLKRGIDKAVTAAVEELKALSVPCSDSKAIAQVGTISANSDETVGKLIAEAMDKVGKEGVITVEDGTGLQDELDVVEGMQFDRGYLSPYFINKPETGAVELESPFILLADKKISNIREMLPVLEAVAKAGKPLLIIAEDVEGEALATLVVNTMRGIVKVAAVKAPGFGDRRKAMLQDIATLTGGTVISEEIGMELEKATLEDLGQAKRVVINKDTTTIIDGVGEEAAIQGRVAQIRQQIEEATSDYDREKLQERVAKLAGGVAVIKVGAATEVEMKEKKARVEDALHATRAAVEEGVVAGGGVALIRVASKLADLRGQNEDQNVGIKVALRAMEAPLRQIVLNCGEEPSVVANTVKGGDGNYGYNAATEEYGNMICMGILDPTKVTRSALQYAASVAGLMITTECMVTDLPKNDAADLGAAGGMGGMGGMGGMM

Spectrum Count [1]: 12 count | Spectrum Count [2]: 24 count | Spectrum Count [3]: 17 count | Spectrum Count [4]: 34 count | Spectrum Count [5]: 15 count | Spectrum Count [6]: 9 count | Spectrum Count [7]: 26 count | Spectrum Count [8]: 16 count | Spectrum Count [9]: 10 count | Spectrum Count [10]: 43 count | Spectrum Count [11]: 10 count | Spectrum Count [12]: 113 count | Spectrum Count (bassoon (Homo sapiens)): 12 count | Spectrum Count [13]: 19 count | Spectrum Count [14]: 41 count | Spectrum Count [15]: 11 count | Spectrum Count [16]: 13 count | Spectrum Count [17]: 10 count | Spectrum Count [18]: 14 count | Spectrum Count [19]: 22 count | Spectrum Count [20]: 34 count | Spectrum Count [21]: 9 count | Spectrum Count [22]: 20 count | Spectrum Count [23]: 110 count | Spectrum Count [24]: 19 count | Spectrum Count [25]: 12 count | Spectrum Count [26]: 13 count | Spectrum Count [27]: 12 count | Spectrum Count [28]: 30 count | Spectrum Count [29]: 16 count | Spectrum Count [30]: 56 count | Spectrum Count [31]: 60 count | Spectrum Count [32]: 13 count | Spectrum Count [33]: 14 count
Substance: GroEL having Aspartate 490 substituted with Cysteine, biotinylated and conjugated onto NeutrAvidin beads (from UniProt A1AJ51 1-548)
